Data taken from the supplement of paper PMC10201428.
± gives the standard deviation of the averaged measurements.

B1: library; a variant is named by its letters at N, in order (parent)
chain: AATGTTGTTGATGCAACCATAAAGTGATATTTAATAATTATTTATAATCAGCAACTTAACCACAAAACAACCATATATTGATATNTCACAAAACAACCATAANTTGATATTTTTGTGAATCGAGTATTTCAGCAAAACTACTGCAGTAAGAA

Legend:
[1] = variants of: B1; experiment: relative integration efficiency (T-LR orientation) vs wild-type transposon end (log2 (normalized fold change)); transposon end mutated: left end; higher = more efficient transposition; conditions: with VchCAST RNA-guided transposition machinery (E. coli BL21(DE3) host, lacZ target)
In short: (§1)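 Barcode abundances in input plasmids and in genomic integration junctions were obtained by PCR amplification and Illumina sequencing. These came from E. coli BL21(DE3) co-transformed with a T7-driven effector plasmid and a pUC57 donor carrying 1549 left-end or 1849 right-end transposon variants, then plated with 0.1 mM IPTG at 37°C for 18 h. Relative integration efficiency is the output/input fold change, normalised to reference barcodes and log-transformed.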

[2] = variants of: B1; experiment: relative integration efficiency (T-RL orientation) vs wild-type transposon end (log2 (normalized fold change)); transposon end mutated: left end; higher = more efficient transposition; conditions: with VchCAST RNA-guided transposition machinery (E. coli BL21(DE3) host, lacZ target)
In short: as §1

Variant | relative integration efficiency (log2) [1] | relative integration efficiency (log2) [2]
TA A23G G24T A33T T76A A77G C87T T104A T110A T113A | 0.0613 ± 0.2 | -0.917 ± 0.47
CG A27G | -0.486 ± 0.47 | -0.621 ± 0.35
CG A27C | -0.151 ± 0.13 | -0.383 ± 0.25
CG G10T A11C T12G G13T | -4.3 ± 0.89 | -1.43 ± 0.49
CG A99G | -0.0966 ± 0.58 | -0.278 ± 0.18
CG A99C | -1.01 ± 0.78 | -1.23 ± 0.65
CG T38A T42A T45A A47T C49A G51T C52T A54T C55T T56A T57A A59T | -2.39 ± 1.1 | -2.37 ± 0.87
CG A2C T3G G4T T5G | -0.014 ± 0.12 | -0.514 ± 0.095
CG A22T G24T T31C A33C | -0.141 ± 0.18 | -0.0346 ± 0.14
CG G51T | 0.637 ± 0.29 | 0.00628 ± 0.18
TA T76A A77G C87T A96C T112G T113C | -0.4 ± 0.34 | -0.203 ± 0.3
CG A66T | 0.195 ± 0.21 | 0.0703 ± 0.19
CG A66C | 0.113 ± 0.11 | -0.147 ± 0.047
TA A23G G24T A33T T76A A77G C87T A102T T111C T113C | -0.439 ± 0.39 | -0.836 ± 0.54
CG T114G G115T T116G G117T A118C A119C T120G C121A G122T A123C G124T T125G | 0.318 ± 0.049 | 0.295 ± 0.074
GG | -0.397 ± 0.89 | -0.0172 ± 0.13
CG A36T | 0.0771 ± 0.068 | 0.0168 ± 0.042
CG A36G | -0.222 ± 0.59 | -0.259 ± 0.23
CG C18G A19T | -1.25 ± 0.29 | -1.13 ± 0.5
CG T5G T6G G7T T8G | < -10 | -6.89 ± 0.7
CG A47G T48G C52T A53G C55G T56C T57G A58C C60A A62G A66T A67T | -3.24 ± 2.1 | -2.77 ± 0.78
CG A101T A102T | -0.713 ± 0.59 | -0.513 ± 0.27
CG A29C T30G | -1.28 ± 1.4 | -1.12 ± 0.53
CG T86G C87A A88C C89A | -0.0346 ± 0.016 | 0.0789 ± 0.1

Variant | relative integration efficiency (log2) [1] | relative integration efficiency (log2) [2]
CG A40T T41A T42A T43A | 0.256 ± 0.21 | 0.0403 ± 0.12
CG T25A G26C | -1.33 ± 1.5 | -1.73 ± 0.85
CG T28A A29T | -0.0554 ± 0.23 | -0.309 ± 0.44
CG A64C | -0.814 ± 1.1 | -0.0626 ± 0.11
CG T116G G117T | -0.146 ± 0.0071 | -0.273 ± 0.045
CG C61G A62T | -0.236 ± 0.51 | -0.362 ± 0.074
TA A23G G24T A33T A70C T76A T84A C87A A96C T112G T113C | 0.304 ± 0.89 | 0.137 ± 0.19
CG T20A A21T | -0.406 ± 0.45 | -0.483 ± 0.31
CG A34T T35A A36T A37T | 0.329 ± 0.44 | 0.189 ± 0.094
CG A22C A23C G24T T25G | -2.32 ± 0.92 | -2.89 ± 0.82
CG C61A A62C C63A A64C | -0.0245 ± 0.0054 | 0.137 ± 0.14
CG A36G T42C A62G A65G A66C | -0.297 ± 0.32 | -0.575 ± 0.29
CG A70T C71G C72G A73T | -2.15 ± 0.26 | -2.22 ± 0.88
CG T78A T79A | -0.257 ± 0.57 | -0.058 ± 0.35
CG G4T T5G T6G G7T | < -10 | -6.583 ± 0.046
TA G24A T30A A70C T76A T84A C87A T104G T113A | 0.182 ± 0.22 | 0.0306 ± 0.22
CG A11C | 0.113 ± 0.091 | -0.401 ± 0.34
CG A11T | -0.735 ± 0.14 | -0.00672 ± 0.034
CG C71G | -0.452 ± 0.8 | -0.253 ± 0.4
CG A67T C68G A69T A70T | -1.78 ± 0.54 | -1.55 ± 0.73
GG T31A T111A | -0.483 ± 0.67 | -0.581 ± 0.56
AG T82G A83C T84G | -1.31 ± 0.38 | -1.7 ± 0.88
CG T74C | -0.976 ± 1.2 | -1.33 ± 0.63
CG C121A A123G G124A T129C G132A A134C A135T A136T A137C C138A C141G G143T C144T | 0.708 ± 0.024 | 0.721 ± 0.23

Variant | relative integration efficiency (log2) [1] | relative integration efficiency (log2) [2]
CG T105A G106C A107T T108A | -1.32 ± 0.25 | -1.6 ± 0.76
CG T108G | -0.924 ± 0.023 | -0.684 ± 0.41
CA A16C G24T T30A A102T T111C T113C | -0.907 ± 1 | -0.887 ± 0.57
CG T79G G80T | -0.966 ± 0.14 | -1.24 ± 0.76
CG A118T A119T | 0.266 ± 0.26 | -0.158 ± 0.014
GG T86A | 0.153 ± 0.2 | -0.397 ± 0.17
GG T82A A83T T84A | -0.904 ± 0.77 | -0.974 ± 0.49
CG T110C | -0.691 ± 0.63 | -0.405 ± 0.13
CG C97G | -0.468 ± 0.14 | -0.455 ± 0.23
CG C97A | -0.467 ± 1.2 | -0.235 ± 0.37
TA A23G G24T A33T T76A T78G C87A T104A T110A T113A | 0.283 ± 0.28 | 0.0976 ± 0.22
CG T30A T31A | 0.174 ± 0.14 | 0.109 ± 0.27
CG C98G A99T T100A A101T | -1.8 ± 0.21 | -2 ± 0.73
CG A93C | -0.0609 ± 0.5 | -0.288 ± 0.19
CG A93T | -0.975 ± 0.63 | -0.479 ± 0.33
CG G26T G80T G106T | -1.86 ± 1.8 | -2.79 ± 1.3
CG A81C T82G A83C T84G | -1.87 ± 0.22 | -1.9 ± 0.68
CG T41G | 0.12 ± 0.36 | -0.128 ± 0.018
CG A77C T86G | 0.141 ± 0.0087 | -0.217 ± 0.029
CG T8G | < -10 | -6.68 ± 0.98
CG G13A | 0.397 ± 0.29 | 0.195 ± 0.069
CG A58C | -0.0754 ± 0.25 | -0.223 ± 0.17
CG A73T T74A | -0.734 ± 0.56 | -0.97 ± 0.4
CG T12A G13A T30A T31C T32A A77C T86G | -0.4 ± 0.61 | -0.303 ± 0.3

Variant | relative integration efficiency (log2) [1] | relative integration efficiency (log2) [2]
CG A47T T48A C49G A50T | -1.26 ± 1.6 | -0.735 ± 0.52
CC T100A A101T A102T | -0.124 ± 0.68 | -0.77 ± 0.44
CG C72A A73C T74G A75C | -2.39 ± 1.6 | -2.27 ± 0.64
CG G10A | -0.534 ± 0.039 | -0.083 ± 0.089
TA G24A T30A A70C T76A T84A C87A A96C T110A T113A | 0.37 ± 0.55 | 0.271 ± 0.25
CG T9G | 0.416 ± 0.19 | 0.28 ± 0.09
CG A90C | -0.155 ± 0.19 | -0.278 ± 0.11
CG A90T | -0.375 ± 0.31 | -0.404 ± 0.16
CG G13C C14G A15T A16T | -1.69 ± 1.2 | -1.03 ± 0.47
CG A29C | -0.501 ± 0.28 | -0.333 ± 0.36
CG C94G | -1.16 ± 0.81 | -0.958 ± 0.57
CG A75C T76G A77C T78G | -2.25 ± 1.6 | -1.8 ± 0.61
CG G13T C14A | -1.46 ± 1.2 | -0.416 ± 0.31
CA A16C G24T T30A T104G T113A | -0.245 ± 0.15 | -0.185 ± 0.23
CG G106T A107C | -1.19 ± 0.39 | -1.42 ± 0.84
CG C87A A88C C89A A90C | 0.382 ± 0.34 | 0.292 ± 0.29
CG T31A T32A | -0.442 ± 0.33 | -0.131 ± 0.028
CA | 0.637 ± 0.24 | 0.299 ± 0.068
CG A53G | 0.388 ± 0.41 | -0.054 ± 0.011
CG T56G T57G | -1.54 ± 0.34 | -1.59 ± 0.66
CG T43G A44C T45G A46C | 0.536 ± 0.48 | -0.504 ± 0.27
CT A23C A77C | -0.217 ± 1.2 | -0.234 ± 0.065
TA A16C G24T T32G A33C A70C T76A T84A C87A A102T T111C T113C | -1.61 ± 0.92 | -0.84 ± 0.38
CG T48A C49A A50T C52T A53G C55G T56C T57G A59G C60T C61A A66C A67C | 0.607 ± 0.81 | -5.05 ± 1.9

Variant | relative integration efficiency (log2) [1] | relative integration efficiency (log2) [2]
TA T76A T78G C87A A96C T112G T113C | 0.518 ± 0.51 | 0.206 ± 0.018
CG T125G | 0.265 ± 0.28 | -0.0179 ± 0.099
CG A34C T35C A36G T38C A40G T42C A44G A62G A65G A66C | -0.6091 ± 0.0048 | -0.635 ± 0.3
CG T104A | -0.147 ± 0.15 | -0.341 ± 0.23
CG A54C C55A | 0.298 ± 0.28 | -0.0734 ± 0.078
CG A40C | -0.351 ± 0.61 | -0.0674 ± 0.033
CG A40G | 0.0123 ± 0.78 | -0.273 ± 0.0094
CG A62G | 0.446 ± 0.39 | 0.318 ± 0.17
CG T48C | -0.224 ± 0.18 | -0.219 ± 0.15
CG A29T T30A T31A T32A | -0.245 ± 0.11 | -0.49 ± 0.46
CG T105A G106C | -2.53 ± 0.084 | -2.19 ± 0.71
CG T114G | -0.0542 ± 0.0021 | -0.0633 ± 0.064
CG G117T A118C A119C T120G C121A G122T A123C G124T T125G | 0.16 ± 0.029 | 0.0955 ± 0.074
CG A95C A96C C97A C98A | -1.32 ± 1.8 | -2.14 ± 0.8
TA A16C G24T T32G A33C T76A A77G C87T A102T T111C T113C | -1.56 ± 0.58 | -1.11 ± 0.63
CG T111C | -0.338 ± 0.58 | -0.142 ± 0.1
CG T108A A109T | -0.852 ± 0.53 | -0.848 ± 0.47
CG A44C | -0.0239 ± 0.24 | 0.147 ± 0.068
CG T12A G13C C14G A15T | -0.874 ± 0.76 | -0.341 ± 0.43
CG A92T A93T C94G A95T | -3.64 ± 1.2 | -1.61 ± 0.83
